Data as given in patent US6960559B1, “Neurite growth regulatory factors” (University of Zurich, priority 1988, dated 2005).
Where “and” joins values, the source holds several entries; their conditions need not be identical. Equal entries are not always repeated.

B1: tPA: tissue-type plasminogen activator (protein, UniProt P00750 36-562, looked up)
Tissue-type plasminogen …: SYQVICRDEKTQMIYQQHQSWLRPVLRSNRVEYCWCNSGRAQCHSVPVKSCSEPRCFNGGTCQQALYFSDFVCQCPEGFAGKCCEIDTRATCYEDQGISYRGTWSTAESGAECTNWNSSALAQKPYSGRRPDAIRLGLGNHNYCRNPDRDSKPWCYVFKAGKYSSEFCSTPACSEGNSDCYFGNGSAYRGTHSLTESGASCLPWNSMILIGKVYTAQNPSAQALGLGKHNYCRNPDGDAKPWCHVLKNRRLTWEYCDVPSCSTCGLRQYSQPQFRIKGGLFADIASHPWQAAIFAKHRRSPGERFLCGGILISSCWILSAAHCFQERFPPHHLTVILGRTYRVVPGEEEQKFEVEKYIVHKEFDDDTYDNDIALLQLKSDSSRCAQESSVVRTVCLPPADLQLPDWTECELSGYGKHEALSPFYSERLKEAHVRLYPSSRCTSQHLLNRTVTDNMLCAGDTRSGGPQANLHDACQGDSGGPLVCLNDGRMTLVGIISWGLGCGQKDVPGVYTKVTNYLDWIRDNMRP
B2: 2-macroglobulin: general protease inhibitor (protein, UniProt P01023 24-1474, looked up)
Alpha-2-macroglobulin: SVSGKPQYMVLVPSLLHTETTEKGCVLLSYLNETVTVSASLESVRGNRSLFTDLEAENDVLHCVAFAVPKSSSNEEVMFLTVQVKGPTQEFKKRTTVMVKNEDSLVFVQTDKSIYKPGQTVKFRVVSMDENFHPLNELIPLVYIQDPKGNRIAQWQSFQLEGGLKQFSFPLSSEPFQGSYKVVVQKKSGGRTEHPFTVEEFVLPKFEVQVTVPKIITILEEEMNVSVCGLYTYGKPVPGHVTVSICRKYSDASDCHGEDSQAFCEKFSGQLNSHGCFYQQVKTKVFQLKRKEYEMKLHTEAQIQEEGTVVELTGRQSSEITRTITKLSFVKVDSHFRQGIPFFGQVRLVDGKGVPIPNKVIFIRGNEANYYSNATTDEHGLVQFSINTTNVMGTSLTVRVNYKDRSPCYGYQWVSEEHEEAHHTAYLVFSPSKSFVHLEPMSHELPCGHTQTVQAHYILNGGTLLGLKKLSFYYLIMAKGGIVRTGTHGLLVKQEDMKGHFSISIPVKSDIAPVARLLIYAVLPTGDVIGDSAKYDVENCLANKVDLSFSPSQSLPASHAHLRVTAAPQSVCALRAVDQSVLLMKPDAELSASSVYNLLPEKDLTGFPGPLNDQDNEDCINRHNVYINGITYTPVSSTNEKDMYSFLEDMGLKAFTNSKIRKPKMCPQLQQYEMHGPEGLRVGFYESDVMGRGHARLVHVEEPHTETVRKYFPETWIWDLVVVNSAGVAEVGVTVPDTITEWKAGAFCLSEDAGLGISSTASLRAFQPFFVELTMPYSVIRGEAFTLKATVLNYLPKCIRVSVQLEASPAFLAVPVEKEQAPHCICANGRQTVSWAVTPKSLGNVNFTVSAEALESQELCGTEVPSVPEHGRKDTVIKPLLVEPEGLEKETTFNSLLCPSGGEVSEELSLKLPPNVVEESARASVSVLGDILGSAMQNTQNLLQMPYGCGEQNMVLFAPNIYVLDYLNETQQLTPEIKSKAIGYLNTGYQRQLNYKHYDGSYSTFGERYGRNQGNTWLTAFVLKTFAQARAYIFIDEAHITQALIWLSQRQKDNGCFRSSGSLLNNAIKGGVEDEVTLSAYITIALLEIPLTVTHPVVRNALFCLESAWKTAQEGDHGSHVYTKALLAYAFALAGNQDKRKEVLKSLNEEAVKKDNSVHWERPQKPKAPVGHFYEPQAPSAEVEMTSYVLLAYLTAQPAPTSEDLTSATNIVKWITKQQNAQGGFSSTQDTVVALHALSKYGAATFTRTGKAAQVTIQSSGTFSSKFQVDNNNRLLLQQVSLPELPGEYSMKVTGEGCVYLQTSLKYNILPEKEEFPFALGVQTLPQTCDEPKAHTSFQISLSVSYTGSRSASNMAIVDVKMVSGFIPLKPTVKMLERSNHVSRTEVSSNHVLIYLDKVSNQTLSLFFTVLQDVPVRDLKPAIVKVYDYYETDEFAIAEYNAPCSKDLGNA
B3: papain: cysteine protease (protein, UniProt P00784 134-345, looked up)
Papain: IPEYVDWRQKGAVTPVKNQGSCGSCWAFSAVVTIEGIIKIRTGNLNEYSEQELLDCDRRSYGCNGGYPWSALQLVAQYGIHYRNTYPYEGVQRYCRSREKGPYAAKTDGVRQVQPYNEGALLYSIANQPVSVVLEAAGKDFQLYRGGIFVGPCGNKVDHAVAAVGYGPNYILIKNSWGTGWGENGYIRIKRGTGNSYGVCGLYTSSFYPVKN
B4: soybean trypsin inhibitor: serine protease blocker (protein, UniProt P01070 25-205, looked up)
Trypsin inhibitor A: DFVLDNEGNPLENGGTYYILSDITAFGGIRAAPTGNERCPLTVVQSRNELDKGIGTIISSPYRIRFIAEGHPLSLKFDSFAVIMLCVGIPTEWSVVEDLPEGPAVKIGENKDAMDGWFRLERVSDDEFNNYKLVFCPQQAEDDKCGDIGISIDHDDGTRRLVVSKNKPLVVQFQKLDKESL

What was measured:
cbz-FAF[^125I]Y-NH2 = assay: Degradation of cbz-FAF[125I]Y-NH2 by defined proteases and C6 cell fractions; type: biochemical; conditions: 37° C., pH 7.4
Procedure: Preparation of plasma membrane from C6 cells was performed according to (Raper and Kapfhammer, 1990, Neuron 2:21-29) with some modifications. Briefly, C6 cells were cultured in 30 culture dishes (13.5 cm diameter). At confluency, the culture medium was removed and the cell layers were frozen to −20° C. All subsequent manipulations were performed at 4° C.: cell debris were collected using a rubber policeman in 100 ml CMF-Hank's and further homogenized by 10 strokes in a Dounce homogenizer with teflon plunger. A small aliquot of this suspension was stored at −20° C. and used later (homogenate-fraction). The nuclear pellet was obtained by low speed centrifugation (10 min, 1000×g) in a Sorvall S22 rotor and stored at […] A crude vesicular fraction was obtained by centrifugating the nuclear supernatant in a Sorvall S22 rotor (20,000×g, 30 min), and was resuspended in 10 ml CMF-Hank's. After adding 20 ml 2.25 M sucrose in CMF-Hank's, this suspension was loaded on 4×8 ml 2.25 M sucrose in CMF-Hank's and centrifuged at 80,000×g for 1 h in a Beckman SW28 motor. […]
(§1) For the quantification of the activity, the reaction was stopped by addition of an equal volume of chloroform. […] Activity is expressed as % radioactivity contained in the aqueous phase. 100% is the sum of the radioactivity of both phases.

C6 cells = assay: C6 cell spreading on CNS myelin or PLYS with protease inhibitors; type: cell-based, rat; conditions: C6 cells; spreading on PLYS minus spreading on CNS myelin
Procedure: Rat C6, mouse NIH 3T3 and B16 cells were cultured in Dulbecco's modified Eagle's medium (DMEM) supplemented with 10% fetal calf serum (FCS), usually to maximally 70-80% confluency. Cells were harvested with a short trypsin treatment (0.1% in Ca^2+/Mg^2+-free Hank's medium for 90 seconds) stopped by addition of FCS in excess, collected by centrifugation. Cells were resuspended in either DMEM/FCS or defined serum-free medium (MEM) and used for experiments. […]
Myelin from rat spinal cord (CNS) or sciatic nerve (PNS) purified on a discontinuous sucrose gradient as described in Section 6.1.5., was dried overnight onto PLYS coated wells (20 μg protein/well of 100 mm^2 surface). […] Experiments were scored at different time points using a phase contrast microscope equipped with a photocamera. Quantifications were done using a surface integration program; three arbitrary fields were photographed for each well at a magnitude of 80×, at least 25 cells per picture were measured. […] Results are expressed as μ^2 of projected cell surface, or as degree, which was calculated by subtracting from the projected surface value of a spreading cell, the surface value of a completely spheric cell.

[1] = system: C6 plasma membrane associated metalloendoprotease; assay: Enzyme assay: cbz-FAF[125I]Y-NH2 degradation by C6 plasma membranes with protease blockers; type: biochemical, rat
Procedure: For most experiments, 70-80% confluent cell layers (1 cm^2 wells, 100 μl MEMα) or 2-5 μg C6 plasma membrane (100 μl MEMα) were used. […] If indicated, cell layers or plasma membrane suspensions were preincubated for 30 min with protease blockers or peptides. NEM or iodacetamide incubations of plasma membranes were performed at pH 8.5. The incubation was stopped by loading a 10 μl aliquot of the incubation medium on a thin layer chromatography plate (10 cm height, Kieselgel 60 F254, MERCK, Germany) and air dried. […] Plates were then air dried and exposed on Kodak X-OMAT films (NY, USA) with an intensifying screen. To identify the degradation products on thin-layer chromatography, we run reference peptides under the same conditions.
as §1

Row | Molecule | Amount necessary to degrade 50% of substrate in 30 min (cbz-FAF[^125I]Y-NH2) | other results
1 | B1 | >100 µg | –
2 | B2 | – | Inhibition on CNS (%) (C6 cells): 18%
3 | B3 | 2 µg and 2.0 µg | –
4 | B4 | – | Effect on cbz-FAF[^125I]Y-NH2 degradation by C6 plasma membranes, in words [1]: had no effect
